Measurements from the DeepSol protein solubility set.

experiment: soluble on expression in E. coli; label from the status in PepcDB or PDB records

Soluble on expression in E. coli, soluble:
MTKRHVSLPADAKDVRRAFVSGVDERLSAAETPDELATAVTGTLADLRGERDAYEAWRDGDDVRPAAAARLATLDPRNASLESEYYAEKDEAAFARSKPLQWLWRQFDTTPLADNVDVALPFRRMLAGHLFAGVGEDVRLFKGITMTYGHNIELGDNAVVHDGVHLDDRGELVVGARASVSNGAHLYTHDHDVVDQTDVTNYRTEIGADARVTQGALVRAGVRVGENALVGSRSVVQGDVPAHHIAVGSPAESVRVKPGWEAVAAPLDAGLEHHHHHH
MALVNSILKANEYSFKVPEFDGKNVSSILGFDSNQLPANAPIEDRRSAATCLQTRGMLLGVFDGHAGCACSQAVSERLFYYIAVSLLPHETLLEIENAVESGRALLPILQWHKHPNDYFSKEASKLYFNSLRTYWQELIDLNTGESTDIDVKEALINAFKRLDNDISLEAQVGDPNSFLNYLVLRVAFSGATACVAHVDGVDLHVANTGDSRAMLGVQEEDGSWSAVTLSNDHNAQNERELERLKLEHPKSEAKSVVKQDRLLGLLMPFRAFGDVKFKWSIDLQKRVIESGPDQLNDNEYTKFIPPNYHTPPYLTAEPEVTYHRLRPQDKFLVLATDGLWETMHRQDVVRIVGEYLTGMHHQQPIAVGGYKVTLGQMHGLLTERRTKMSSVFEDQNAATHLIRHAVGNNEFGTVDHERLSKMLSLPEELARMYRDDITIIVVQFNSEGHHHHHH
MKITHCKLKKEVQKEPLRSFVPEVTARSAADILGIHPDSAALFYRKIRTVTNHRLALAADEVFECPAGPGASCFGVRRKGRRGRGAAGKAVVFGIPKRNGRAYTVAEDDAEPETLPPAVKKKIMPDGIVYADSPGSRGKSDAGGFTRCRINRSKEFADRRNHINGIGNFWNQAKRALRKYNGIDRKPFPPLLRECEFRFNFGTPSRQLKILRDRCGILEHHHHHH
MSLLFASLLKNRLRLGQLTMIDAKGQTHVLGGDGPGPRVTIRLTDPSLHRRLFLRPHLAIGEAYMEGTLIIERGGLRDFLELIGANLAAIEGSPWVALGQRLSGLMRRLQQRNPVWRSRRNVAHHYDLSGAFYDLFLDSDRQYSCAYFARDGDSLEQAQDNKKRLIAAKLMLRPGQHVLDIGCGWGGLALHLARHHDVRVTGITLSQEQAALARERVRAAGLQDRVTILLKDYRDLDGRFDRVVSVGMLEHVGAPQLADYFRHVGGLLSDDGVALIHSIGRMEPPGSTNVWIRKYIFPGGYSPALSETLAAVEGSGLYLTDAEILRLHYARTLAEWTRRFQANREAARALYDERFCRMWEFYLLGCEMAFRHGNQMVFQLQLARREGHHHHHH
MSLIPATLLLVEDDPDQRIIMQRKLQQQGYKVICAENGEEAVDLYNNNTIDLVLMDAQLPGMDGFEACFLITHTETGSRCPVMMITSLENSESVDRAFQVGAEEYVPKPIHWKVLMQRIRRQIKSRRVHQEGHHHHHH
GIPMETKGGTVKAASGFNATEDAQVLRKAMKGLGTDEDAIIGVLACRNTAQRQEIRTAYKSTIGRDLLEDLKSELSSNFEQVILGMMTPTVLYDVQELRRAMKGAGTDEGCLIEILASRNPEEIRRINQTYQQQYGRSLEEDICSDTSFMFQRVLVSLTAGGRDEGNYLDDALVKQDAQDLYEAGEKRWGTDEVKFLSILCSRNRNHLLHVFDEYKRISQKDIEQSIKSETSGSFEDALLAIVKCMRNKPAYFAERLYKSMKGLGTDDSTLIRVMVSRAEIDMLDIRANFKRLYGKSLYSFIKGDTSGDYRKVLLILCGGDD
MEELFCIGCGAQIQTEDKEKAGFTPASSIKKAEETGELYCQRCFRLRHYNEIVDVHITDDEFLKLLYEVGDSDALVVNVVDIFDFNGSIIPGLSRFVSGNDVLLVGNKKDILPKSVKDGKVTQWLTERAHEEGMRPVDVMLTSAQNHHAIKELIQRIEALRKGRDVYVVGVTNVGKSTLINAIIKEITGDKDVITTSRFPGTTLDKIEIPLDDGSYIFDTPGIIHRHQMAHYLSAKDLKYVSPKKEIKPKTYQLNAGQTLFLGGLGRFDFIDGDKQGFTAFFDNNLKLHRTKLDGADAFYDKHVGSLLMPPGPKELADFPKLVRHEFTIKDKTDVVFSGLGWIRVQGKTDQPTIVAAWAPEGVGVVVRKAIILEHHHHHH
MKETRDLETLSVNAIRFLAIDAVEKARSGHPGMPMGMAPLAYLLFREVMRHNPLDPDWPDRDRFVLSAGHGSMLLYAVLHLTGYDLPLEELKSFRQWGSKTPGHPERGHTPGVEVTTGPLGQGISTAVGLALAERKLAAEFNRPGHVVVDHYTYVLASDGDLMEGVSGEAASLAGHWGLSKLIVFWDDNRISIDGPTDLAFTEDVLARYRAYGWQTLRVEDVNDLEALRKAIKLAKLDERPTLIAVRSHIGFGSPKQDSAKAHGEPLGPEAVEATRRNLGWPYPPFVVPEEVYRHMDMREKGRAWQEAWEKALEAYARAYPDLHQELMRRLRGELPPLPEEPPSFDKPIATRAASGRALNLLAPRLPELLGGSADLTPSNNTKAEGMEDFSRANPLGRYLHFGVREHAMGAILNGLNLHGGYRAYGGTFLVFSDYMRPAIRLAALMGVPTVFVFTHDSIALGEDGPTHQPVEHLMSLRAMPNLFVIRPADAYETFYAWLVALRRKEGPTALVLTRQAVPLLSPEKARGLLRGGYVLEDVEEPQGVLVATGSEVHLALRAQALLREKGVRVRVVSLPSFELFAAQPEAYRKEVLPPGLPVVAVEAGASLGWERYAHKVVALDRFGASAPYPEVYERLGFTPERVAEAFLSLV

Soluble on expression in E. coli, not soluble:
MGSDKIHHHHHHMDSYSDVKMGEYEPTWRSGMAKSITFIVTEDCQLRCGYCYIIGKNKFNRMSFTIARTAVDYILHNRALFWEDSVIWDFIGGEPLLEIELIDRICDYIKRRMYELDHPWFNSYRFSFSTNGLLYGTEKVQRFIRKNAHHLSISISIDGTRKKHDAQRVFPDGSGSYDAVVKNVPLWLKQFPNASTKATVAHDDLPLLKESVIHLWQLGLKNVTINLVNENIWEPGDDIIYETQLRELADYIVENDLYDTHNCSFFSKSIGKPLDCKTDNGNWCGSGKMLAIDGDGVFYPCVRFAPYSMRYKPARSIGNCFDGLDMNRVRPFLVLNRSMQSPEECIACDVASGCAWCQGNNYDLAATDTIYQRAVYTCAMHKARVRANRYFGEKLADRLGRERPVEAR
MAHHHHHHMVTFRCDCLHNEAEGALCRWKGKWHPANCTNTPVLLIGKGQPQGYFKLKLKVYAIFHGNGHRLHTLNCTDEDSSEDSLNATTCSDSDWRSITQQVPTEETVEQSAASEQGPSDTTKGSGSDDEETASSAPKSEGEEQEASGEGEETPKEDQQSPGEKRGTAGEKRGASGKKDGAGGEGLTRKEPEKGGATQGGKHTHPRGESSPEKGTVNDHQRDAAEDGTTTNGKQDADPGREEPVRGRDDTVAAGAGIVSNTGRIDRKPENKKGNNVRYGAIQNLLVAIVCFITG
MSLGTPVTLRMDTTDADGRITLGDLFDGVSGPAANVVVAARMSATAVLEAGQVQMSARRAGYVWTNANGVRRIIVREGVDNGGVSSSAAPGAQLAGARLAGAPRANVEVLPYARSLSAGEIVQPQDLIWVKMAGAPADAPRDADAVIGLAAKRPLREGAPVGMKDVAAAQVIKSGDLITITYEDGGISLSLQGKAMAAAAAGDVFAVQNTLSKKIIQAVAVGPGAAAVGPQEGHHHHHH
MYKINDFEIMAPVGSRESLAAAIQAGADSIYFGIENLNMRARSANTFTIEDLREIARTCDEHGMKSYLTVNTIIYDKDIELMRTIVDAAKEAGISAVIAADVAVMSYANKIGQEVHLSTQLNISNAEALKFYAQFADVVVLARELNLEQVAEIYRQIQEEHICGPSGELIRIEMFCHGALCMAVSGKCYLSLHEMNHSANRGACMQICRRAYTVRDKDTDVELEVDNQYIMSPKDLKTIHFMNKMIDAGVRVFKIEGRARGPEYVRTVVECYKQAIRAYLDDSFTDEKIAAWDERLKTVFNRGFWDGYYLGQRLGEWTKNYGSAATERKIYVGKGIKYFSNIGVAEFLVEAAEVSVGDKLLITGPTTGAVFATLDEARVDLKPVETVKKGEHFSMKLDKIRPSDKLYKLVSTEELKKFKGL
MKQIKWWLLAVLLVVGLTGCGSQTTKKQATQQAASTKKISPYVNQQTPTFYVHGFQGSAKSTNTLIAHAEKTAHAHKVLVATVSTSGQVTLTGKWRGRVRNPIIQVVFKNNLAQYDQQSAWLAKVITTVQQQHAFKHYNIVAHSAGCVASVNMLMTQQTTTFPKINKLVTIAGPFDGVVGEDDVANQNSFLTSGQPKYLHAAYELLAAKRNNFPKNVQLLNIVGTLNDGSHSDSLVTNVSARSIKYLLRGRDVDYTEKDFYGAHAQHSQLHENAKVALAVDRFLWHR
MGSDKIHHHHHHMSASMPAYMSDPTDEQLSALNMAMDHKSFKVVAYAGAGKTTTLKLIGERLRGRGLYLAFNKAIANDARAKFPSHVECRTFHSLAYRHVARDITAKLSLPRFSPKRLGDDLGLQPVQVRRQMDGVNKYITLTPARLSRFVSDAISNFCSTHASYPAPRHILFPSWLDGSDAEQLREMLYPAVEQRWLQSIDARHPAGIGHDIYLKLWALSKPSIPADFILFDEAQDADPLMMGILTQQPRQVIYVGDAHQQIYEWRGAVNAMKRLPLPQTLLTQSFRFGEPIAEIANTLLKALQEDVPLKGNPNKQSSTDKGMVHSKKDAILCRTNAAAMSQLLTGLKLGHKVALQADTDRMLKFCQAAENLKNGKSAYGVPELAYFYNWGDVQEYSETNEGSDLKTLVKLVDDHGTNVLSQAVNSLSSIENADYVISTAHKAKGLEWGKVQLDDDFYYDVTTNAVKISPEELRLLYVACTRAQSNLDIHNIKDLISGLQTGKKVVFGNS
SPAPNQPAAKKTLDSTPAQDKPPQPNSQGKKLASVALLLVLALGAGFAYVHQQQKSEFNNQLQAVRAELKQTRDALNAQLEQTVSKATSQATEITHRAETVLEQQQKSIESLQLAVADIKGRRPNDWLLAEADYLVKLAGRKLFLEHDVETATQLMESADQRIAALNDPSLTALRKAMANDITTLKNIPLIDRDGLVLRLISLQQQIDSLPLANAILPADQPQTSQAVSENIDDWQTNLKNSLKAFADNFITFRSRDGNVIPLLSPTQHFYLRENLQAKLETAIKGVYTEQQTLYRIALDTAAQWSTSFFNPDDKAVQSFNAALAQLAEQQVQVEYPVKLQAQQQLADVINERLRRSVSPLTTGA
MFTAKCAMQNIRNVAIVGSGQMGSGIAQVTASSGFNVMLADVNKKALDRAMKAISQSVTHLSKKQKGTDKEKSDFVTLTMSRIKTCNNVSTAVADADLIIEAAIENIDLKRGIFAQIEQSCKKDSILTTNTSSFLLEDVAKGLQDKTRFGGLHFFNPVPVMKLLEVIRSDDTSDETYATLIKFGTAVGKTTVACKDSPGFIVNRLLIPYFFEAARMYERGDASMTDIDEAMKLGAGHPMGPFELADYIGLDTVKFVMDGWAAKYPEVQLFEASPLVDKLVAEGKLGRKTGDGFYSYKK
MGSDKIHHHHHHMSDVLAYSVPAPAVVFPPMSPAPRVVPIAVQAPRKDALGCTACSMRSICMPQGLTPTELQRIEALICPSRTIKQGETIYRANDSFQSIYVVRVGSFKTVVMHRDGREQVTGFHLAGDSLGLDGVCSGHHSCDAIALEDSKMCIIPFHLLETMCREVKAVQQHVHRMMGGEIVRESSQMMLLGTMSAEQRVAT
MGSDKIHHHHHHMSDYLRGKRVVDPVLTSVARGYKNAAFVGESIFPIVQVEKEGIVVPLFGKGAFVEYDTERAVGAESNVLLREKSSSMDLVLNEHDLAAPVDYREQAESLFNEEAKAIRRATNGVNLKRELYAARLAQDPKVYLAASKKTLAAAERWANGKGEPVTVIEAGIEAVRNATGLRPNLLTMGASVMSVLRYHPAIQAQIGANERKRITAEILQDIFQINKVLIGEPVSSPDGKKAPIDVWADNLMLHYVSPPQPGTESADENEPSFGYTFRRKGMPVSDKYPGVGGKVSYARFTDIYKVAVVGGDAGYLITNILK
